# Assay results from patent US20190054150A1 (AEQUUS BIOPHARMA, published 2019).
# Square brackets hold non-standard residues; d marks the D form. Ends that are not written are not given here. Nle = CCCC[C@H](N)C(=O)O; βAla = NCCC(=O)O
# B1: ACTH1-24-natural N-terminal spacer-NDP-α-MSH (peptide)
# peptide: SYSMEHFRWGKPVGKKRRPVKVYPPLPEGGPEPRSDGAKPGPREGKRSYS[Nle]EH[dF]RWGKPV
# modifications: ends and bridges not checked
# B2: ACTH1-24-natural C-terminal spacer-NDP-α-MSH (peptide)
# peptide: SYSMEHFRWGKPVGKKRRPVKVYPELTGQRLREGDGPDGPADDGAGASYS[Nle]EH[dF]RWGKPV
# modifications: ends and bridges not checked
# B3: ACTH1-24-linker-Furin site-linker-NDP-α-MSH (peptide)
# peptide: SYSMEHFRWGKPVGKKRRPVKVYPGGGGSRRKRGGGGSSYS[Nle]EH[dF]RWGKPV
# modifications: ends and bridges not checked
# B4: γ-MSH-ACTH1-24 (peptide)
# peptide: YVMGHFRWDRFGKRSYSMEHFRWGKPVGKKRRPVKVYP
# B5: NDP-ACTH4-9-βAla-G-βAla-ACTH1-24 (peptide)
# peptide: XEHXRWAGASYSMEHFRWGKPVGKKRRPVKVYP
# modifications: Nle, dPhe and β-Ala residues as printed: Nle-EH-dPhe-RW-β-Ala-G-β-Ala-SYSMEHFRWGKPVGKKRRPVKVYP
# B6: ACTH1-24-point-5-NDP-α-MSH (peptide)
# peptide: SYSMEHFRWGKPVGKKRRAVKVYPSYS[Nle]EH[dF]RWGKPV
# B7: NDP-α-MSH-linker-Furin site-linker-ACTH1-24 (peptide)
# peptide: Ac-SYS[Nle]EH[dF]RWGKPVGGGGSRRKRGGGGSSYSMEHFRWGKPVGKKRRPVKVYP
# B8: ACTH1-24-natural C-terminal spacer-α-MSH (peptide)
# peptide: SYSMEHFRWGKPVGKKRRPVKVYPELTGQRLREGDGPDGPADDGAGASYSMEHFRWGKPV
# B9: γ-MSH-ACTH1-24 without linker and cleavage site (peptide)
# peptide: YVMGHFRWDRFGSYSMEHFRWGKPVGKKRRPVKVYP
# B10: NDP-α-MSH-linker-MMP (broad) site-linker-ACTH1-24 (peptide)
# peptide: Ac-SYS[Nle]EH[dF]RWGKPVGGGGSPAGLVAGGGGSSYSMEHFRWGKPVGKKRRPVKVYP
# B11: ACTH1-24-linker-MMP site-linker-NDP-α-MSH (peptide)
# peptide: SYSMEHFRWGKPVGKKRRPVKVYPGGGGSPLGLWAGGGGSSYS[Nle]EH[dF]RWGKPV
# modifications: ends and bridges not checked
# B12: ACTH1-24-point-1-2 (peptide)
# peptide: SYSMEHFRWGKPVGAARRPVKVYP
# B13: ACTH1-24-natural N-terminal spacer-α-MSH (peptide)
# peptide: SYSMEHFRWGKPVGKKRRPVKVYPPLPEGGPEPRSDGAKPGPREGKRSYSMEHFRWGKPV
# B14: NDP-ACTH4-9-ACTH1-24 (peptide)
# peptide: XEHXRWSYSMEHFRWGKPVGKKRRPVKVYP
# modifications: Nle at position 1 and dPhe at position 4 as printed: Nle-EH-dPhe-RWSYSMEHFRWGKPVGKKRRPVKVYP
# B15: NDP-ACTH (peptide)
# peptide: SYSXEHXRWGKPVGKKRRPVKVYP
# modifications: Nle and DPhe as printed: SYS-Nle-EH-DPhe-RWGKPVGKKRRPVKVYP
# B16: NDP-ACTH4-9-βAla-G-βAla-NDP-ACTH4-9 (peptide)
# peptide: [Nle]EH[dF]RW[βAla]G[βAla][Nle]EH[dF]RW
# B17: ACTH1-24-point-3-5 (peptide)
# peptide: SYSMEHFRWGKPVGKKAAAVKVYP
# B18: ACTH1-24-point-1-2-NDP-α-MSH (peptide)
# peptide: SYSMEHFRWGKPVGAARRPVKVYPSYS[Nle]EH[dF]RWGKPV
# modifications: ends and bridges not checked
# B19: NDP-α-MSH-linker-MMP site-linker-ACTH1-24 (peptide)
# peptide: Ac-SYS[Nle]EH[dF]RWGKPVGGGGSPLGLWAGGGGSSYSMEHFRWGKPVGKKRRPVKVYP
# B20: ACTH1-24-linker-MMP (broad) site-linker-NDP-α-MSH (peptide)
# peptide: SYSMEHFRWGKPVGKKRRPVKVYPGGGGSPAGLVAGGGGSSYS[Nle]EH[dF]RWGKPV
# modifications: ends and bridges not checked
# B21: ACTH1-24-proconvertase-α-MSH (peptide)
# peptide: SYSMEHFRWGKPVGKKRRPVKVYPGGGGSRRKRSYSMEHFRWGKPV
# B22: ACTH1-24-point-5 (peptide)
# peptide: SYSMEHFRWGKPVGKKRRAVKVYP
# B23: γ-MSH with linker (peptide)
# peptide: YVMGHFRWDRFGRRNSSSSGSSGAGQKR
# B24: γ-MSH-ACTH1-24 linker without cleavable site (peptide)
# peptide: YVMGHFRWDRFGRRNSSSSGSSGAGQSYSMEHFRWGKPVGKKRRPVKVYP
# B25: ACTH1-39 (peptide)
# peptide: SYSMEHFRWGKPVGKKRRPVKVYPNGAEDESAEAFPLEFKR
# B26: ACTH1-24-proconvertase-NDP-α-MSH (peptide)
# peptide: SYSMEHFRWGKPVGKKRRPVKVYPGGGGSRRKRSYS[Nle]EH[dF]RWGKPV
# B27: ACTH1-24-NDP-α-MSH (peptide)
# peptide: SYSMEHFRWGKPVGKKRRPVKVYPSYS[Nle]EH[dF]RWGKPV
# modifications: ends and bridges not checked
# B28: ACTH1-24-point-3-5-NDP-α-MSH (peptide)
# peptide: SYSMEHFRWGKPVGKKAAAVKVYPSYS[Nle]EH[dF]RWGKPV
# Key:
# Assay in all cases: cell-based or functional assay
# MCR3 = MCR3 (human, UniProt P41968 1-323)
# MCR1 = MCR1 (human, UniProt Q01726 1-317)
# MCR4 = MCR4 (human, UniProt P32245 1-332)
# MCR5 = MCR5 (human, UniProt P33032 1-325)
# Chain of MCR5 (P33032 whole entry): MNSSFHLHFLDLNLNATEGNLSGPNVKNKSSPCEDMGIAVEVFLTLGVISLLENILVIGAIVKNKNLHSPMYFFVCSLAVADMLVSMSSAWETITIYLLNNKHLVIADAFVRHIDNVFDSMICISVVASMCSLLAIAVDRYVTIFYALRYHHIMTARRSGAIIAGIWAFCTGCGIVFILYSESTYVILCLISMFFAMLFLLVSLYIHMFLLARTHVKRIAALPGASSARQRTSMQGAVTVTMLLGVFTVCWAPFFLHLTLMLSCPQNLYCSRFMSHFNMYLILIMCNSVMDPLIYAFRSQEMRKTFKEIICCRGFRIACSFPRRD
# Chain of MCR3 (P41968 whole entry): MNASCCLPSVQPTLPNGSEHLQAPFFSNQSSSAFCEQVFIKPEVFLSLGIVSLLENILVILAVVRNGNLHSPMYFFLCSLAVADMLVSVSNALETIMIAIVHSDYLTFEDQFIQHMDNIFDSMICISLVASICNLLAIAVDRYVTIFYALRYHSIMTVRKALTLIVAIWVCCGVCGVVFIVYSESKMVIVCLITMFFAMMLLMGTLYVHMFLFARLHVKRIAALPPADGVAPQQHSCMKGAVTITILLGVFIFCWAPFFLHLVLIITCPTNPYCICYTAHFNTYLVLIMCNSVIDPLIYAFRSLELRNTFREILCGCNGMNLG
# Chain of MCR4 (P32245 whole entry): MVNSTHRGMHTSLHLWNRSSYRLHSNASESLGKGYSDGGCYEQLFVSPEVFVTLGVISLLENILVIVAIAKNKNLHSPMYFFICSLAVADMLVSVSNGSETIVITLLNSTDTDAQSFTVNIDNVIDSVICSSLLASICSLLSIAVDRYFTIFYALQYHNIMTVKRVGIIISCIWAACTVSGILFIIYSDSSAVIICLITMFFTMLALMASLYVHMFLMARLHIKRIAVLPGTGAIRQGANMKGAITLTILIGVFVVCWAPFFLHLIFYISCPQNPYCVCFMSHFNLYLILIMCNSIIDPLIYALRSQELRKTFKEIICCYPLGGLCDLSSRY
# Chain of MCR1 (Q01726 whole entry): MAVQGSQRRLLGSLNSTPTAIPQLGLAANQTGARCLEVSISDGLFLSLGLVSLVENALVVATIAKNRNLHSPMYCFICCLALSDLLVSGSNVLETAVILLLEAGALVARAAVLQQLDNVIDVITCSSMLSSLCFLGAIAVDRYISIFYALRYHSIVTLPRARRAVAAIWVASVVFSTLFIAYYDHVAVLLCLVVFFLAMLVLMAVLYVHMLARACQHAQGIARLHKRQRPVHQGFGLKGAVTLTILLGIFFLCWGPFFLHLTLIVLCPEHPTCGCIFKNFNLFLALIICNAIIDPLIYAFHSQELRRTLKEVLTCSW
Binder,"MCR3 EC50 (nM); cAMP production, LANCE cAMP assay, CHO-MCR3 cells, cell pool B (MCR3)","MCR1 EC50 (nM); cAMP production, LANCE cAMP assay, CHO-MCR1 cells, cell pool B (MCR1)","MCR4 EC50 (nM); cAMP production, LANCE cAMP assay, CHO-MCR4 cells, cell pool B (MCR4)",further results
B1,0.62 nM,0.63 nM,1.6 nM,
B2,1.66 nM,0.8 nM,8.7 nM,
B3,0.453 nM,0.202 nM,1.9 nM,
B4,,,,"MCR3 EC50 (nM); cAMP production, LANCE cAMP assay, CHO-MCR3 cells, cell pool A (MCR3): 38 nM; MCR1 EC50 (nM); cAMP production, LANCE cAMP assay, CHO-MCR1 cells, cell pool A (MCR1): 22 nM"
B5,5.5 nM,0.16 nM,2.4 nM,
B6,,,,"MCR3 EC50 (nM); cAMP production, LANCE cAMP assay, CHO-MCR3 cells, cell pool C (MCR3): 1.5 nM; MCR1 EC50 (nM); cAMP production, LANCE cAMP assay, CHO-MCR1 cells, cell pool C (MCR1): 0.44 nM; MCR4 EC50 (nM); cAMP production, LANCE cAMP assay, CHO-MCR4 cells, cell pool C (MCR4): 3.4 nM; MCR5 EC50 (nM); cAMP production, LANCE cAMP assay, CHO-MCR5 cells, cell pool C (MCR5): 28 nM"
B7,4 nM,0.333 nM,6.5 nM,
B8,22 nM,1.02 nM,> 20 nM,
B9,,,,"MCR3 EC50 (nM); cAMP production, LANCE cAMP assay, CHO-MCR3 cells, cell pool A (MCR3): 33 nM; MCR1 EC50 (nM); cAMP production, LANCE cAMP assay, CHO-MCR1 cells, cell pool A (MCR1): 12 nM"
B10,1.5 nM,0.295 nM,1.9 nM,
B11,4.7 nM,1.6 nM,5.8 nM,
B12,,,,"MCR3 EC50 (nM); cAMP production, LANCE cAMP assay, CHO-MCR3 cells, cell pool C (MCR3): 10 nM; MCR1 EC50 (nM); cAMP production, LANCE cAMP assay, CHO-MCR1 cells, cell pool C (MCR1): 0.43 nM; MCR4 EC50 (nM); cAMP production, LANCE cAMP assay, CHO-MCR4 cells, cell pool C (MCR4): 62 nM; MCR5 EC50 (nM); cAMP production, LANCE cAMP assay, CHO-MCR5 cells, cell pool C (MCR5): 275 nM"
B13,6.2 nM,0.82 nM,> 20 nM,
B14,6.8 nM,0.17 nM,0.8 nM,
B15,,,,"MCR3 EC50 (nM); cAMP production, LANCE cAMP assay, CHO-MCR3 cells, cell pool C (MCR3): 0.21 nM; MCR1 EC50 (nM); cAMP production, LANCE cAMP assay, CHO-MCR1 cells, cell pool C (MCR1): 0.11 nM; MCR4 EC50 (nM); cAMP production, LANCE cAMP assay, CHO-MCR4 cells, cell pool C (MCR4): 0.22 nM; MCR5 EC50 (nM); cAMP production, LANCE cAMP assay, CHO-MCR5 cells, cell pool C (MCR5): 1.1 nM"
B16,25 nM,0.35 nM,6.7 nM,
B17,,,,"MCR3 EC50 (nM); cAMP production, LANCE cAMP assay, CHO-MCR3 cells, cell pool C (MCR3): 14 nM; MCR1 EC50 (nM); cAMP production, LANCE cAMP assay, CHO-MCR1 cells, cell pool C (MCR1): 0.54 nM; MCR4 EC50 (nM); cAMP production, LANCE cAMP assay, CHO-MCR4 cells, cell pool C (MCR4): 128 nM; MCR5 EC50 (nM); cAMP production, LANCE cAMP assay, CHO-MCR5 cells, cell pool C (MCR5): > 100 nM"
B18,,,,"MCR3 EC50 (nM); cAMP production, LANCE cAMP assay, CHO-MCR3 cells, cell pool C (MCR3): 0.72 nM; MCR1 EC50 (nM); cAMP production, LANCE cAMP assay, CHO-MCR1 cells, cell pool C (MCR1): 0.28 nM; MCR4 EC50 (nM); cAMP production, LANCE cAMP assay, CHO-MCR4 cells, cell pool C (MCR4): 1.4 nM; MCR5 EC50 (nM); cAMP production, LANCE cAMP assay, CHO-MCR5 cells, cell pool C (MCR5): 21 nM"
B19,17 nM,2.4 nM,14 nM,
B20,1 nM,0.528 nM,4.8 nM,"MCR1 EC50 (nM); cAMP production, LANCE cAMP assay, CHO-MCR1 cells, cell pool B (second value printed below the first) (MCR1): 0.36 nM"
B21,6.1 nM,0.92 nM,26 nM,
B22,,,,"MCR3 EC50 (nM); cAMP production, LANCE cAMP assay, CHO-MCR3 cells, cell pool C (MCR3): 10 nM; MCR1 EC50 (nM); cAMP production, LANCE cAMP assay, CHO-MCR1 cells, cell pool C (MCR1): 0.31 nM; MCR4 EC50 (nM); cAMP production, LANCE cAMP assay, CHO-MCR4 cells, cell pool C (MCR4): 60 nM; MCR5 EC50 (nM); cAMP production, LANCE cAMP assay, CHO-MCR5 cells, cell pool C (MCR5): > 100 nM"
B23,11 nM,19 nM,> 100 nM,
B24,,,,"MCR3 EC50 (nM); cAMP production, LANCE cAMP assay, CHO-MCR3 cells, cell pool A (MCR3): 16 nM; MCR1 EC50 (nM); cAMP production, LANCE cAMP assay, CHO-MCR1 cells, cell pool A (MCR1): 11 nM"
B25,18 nM,0.55 nM,31 nM,
B26,0.51 nM,0.44 nM,1.6 nM,
B27,,,,"MCR3 EC50 (nM); cAMP production, LANCE cAMP assay, CHO-MCR3 cells, cell pool C (MCR3): 1.5 nM; MCR1 EC50 (nM); cAMP production, LANCE cAMP assay, CHO-MCR1 cells, cell pool C (MCR1): 0.28 nM; MCR4 EC50 (nM); cAMP production, LANCE cAMP assay, CHO-MCR4 cells, cell pool C (MCR4): 2.3 nM; MCR5 EC50 (nM); cAMP production, LANCE cAMP assay, CHO-MCR5 cells, cell pool C (MCR5): 24 nM"
B28,,,,"MCR3 EC50 (nM); cAMP production, LANCE cAMP assay, CHO-MCR3 cells, cell pool C (MCR3): 0.92 nM; MCR1 EC50 (nM); cAMP production, LANCE cAMP assay, CHO-MCR1 cells, cell pool C (MCR1): 0.32 nM; MCR4 EC50 (nM); cAMP production, LANCE cAMP assay, CHO-MCR4 cells, cell pool C (MCR4): 2.2 nM; MCR5 EC50 (nM); cAMP production, LANCE cAMP assay, CHO-MCR5 cells, cell pool C (MCR5): 25 nM"
